In patent US20060105320A1:

How the values were obtained:
[1] = target: NM (N-terminal and middle region of Sup35p), soluble / unpolymerized (Saccharomyces cerevisiae) (UniProt P05453); experiment: cell-based or functional assay
[2] = target: biotinylated NM^K184C seed (Saccharomyces cerevisiae) (UniProt P05453); experiment: capture of biotinylated seed on Streptavidin-coated Dynabeads, SDS wash, scintillation counting
Sequence of biotinylated NM^K184C seed (Saccharomyces cerevisiae) (P05453 1-253 K184C): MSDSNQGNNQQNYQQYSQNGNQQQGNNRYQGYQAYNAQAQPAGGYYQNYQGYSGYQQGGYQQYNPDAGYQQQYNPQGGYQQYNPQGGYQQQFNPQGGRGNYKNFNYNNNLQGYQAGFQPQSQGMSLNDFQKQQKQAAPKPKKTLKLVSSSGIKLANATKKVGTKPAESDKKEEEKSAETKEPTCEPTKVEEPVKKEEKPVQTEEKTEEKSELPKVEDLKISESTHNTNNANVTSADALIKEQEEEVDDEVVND

Sequence of NM (N-terminal and middle region of Sup35p), soluble / unpolymerized (Saccharomyces cerevisiae) (P05453 1-253): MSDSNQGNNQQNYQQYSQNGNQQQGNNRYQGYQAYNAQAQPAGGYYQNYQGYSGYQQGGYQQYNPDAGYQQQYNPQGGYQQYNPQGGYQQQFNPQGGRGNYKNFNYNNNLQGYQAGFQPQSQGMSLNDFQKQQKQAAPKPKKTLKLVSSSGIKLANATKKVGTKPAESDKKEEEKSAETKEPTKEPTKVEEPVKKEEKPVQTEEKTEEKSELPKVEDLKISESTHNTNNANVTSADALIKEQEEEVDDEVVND

Substance	IC50 of inhibition of NM fibrillization, no nucleotide [1] [nM]	IC50 of inhibition of NM fibrillization, with ADP [1] [nM]	IC50 of inhibition of NM fibrillization, with AMP-PNP [1] [nM]	IC50 of inhibition of NM fibrillization, with ATP hydrolysis [1] [nM]	fraction of seed-bound NM soluble in SDS [2] [%]
Hsp104 (from UniProt P31539 1-908) (enzyme)	7600	3100	200	100	–
NM^T158C-iodo[1-^14C]acetamide (soluble) (from UniProt P05453 1-253)	–	–	–	–	50
